Molecular target: T1, recombinant human αvβ3 (human, UniProt P06756 31-992; P05106 27-718)
T1 construct: integrin αv, human; integrin β3, human; also called soluble αvβ3; recombinant αvβ3; source: bought: Calbiochem (Merck)
Assay: ELISA; solid-phase direct binding assay: 96-well plates coated overnight with 10 μg/ml β43–63 or 0.5 μg/ml vitronectin, blocked with 5% BSA in PBS; recombinant αvβ3 incubated 1.5 h; detected with anti-αvβ3 antibody, anti-mouse-HRP and OPD, read at 450 nm; nonspecific binding to plastic subtracted
Conditions: both partners purified

T1 sequence (P06756 31-992, chain 1 of 2): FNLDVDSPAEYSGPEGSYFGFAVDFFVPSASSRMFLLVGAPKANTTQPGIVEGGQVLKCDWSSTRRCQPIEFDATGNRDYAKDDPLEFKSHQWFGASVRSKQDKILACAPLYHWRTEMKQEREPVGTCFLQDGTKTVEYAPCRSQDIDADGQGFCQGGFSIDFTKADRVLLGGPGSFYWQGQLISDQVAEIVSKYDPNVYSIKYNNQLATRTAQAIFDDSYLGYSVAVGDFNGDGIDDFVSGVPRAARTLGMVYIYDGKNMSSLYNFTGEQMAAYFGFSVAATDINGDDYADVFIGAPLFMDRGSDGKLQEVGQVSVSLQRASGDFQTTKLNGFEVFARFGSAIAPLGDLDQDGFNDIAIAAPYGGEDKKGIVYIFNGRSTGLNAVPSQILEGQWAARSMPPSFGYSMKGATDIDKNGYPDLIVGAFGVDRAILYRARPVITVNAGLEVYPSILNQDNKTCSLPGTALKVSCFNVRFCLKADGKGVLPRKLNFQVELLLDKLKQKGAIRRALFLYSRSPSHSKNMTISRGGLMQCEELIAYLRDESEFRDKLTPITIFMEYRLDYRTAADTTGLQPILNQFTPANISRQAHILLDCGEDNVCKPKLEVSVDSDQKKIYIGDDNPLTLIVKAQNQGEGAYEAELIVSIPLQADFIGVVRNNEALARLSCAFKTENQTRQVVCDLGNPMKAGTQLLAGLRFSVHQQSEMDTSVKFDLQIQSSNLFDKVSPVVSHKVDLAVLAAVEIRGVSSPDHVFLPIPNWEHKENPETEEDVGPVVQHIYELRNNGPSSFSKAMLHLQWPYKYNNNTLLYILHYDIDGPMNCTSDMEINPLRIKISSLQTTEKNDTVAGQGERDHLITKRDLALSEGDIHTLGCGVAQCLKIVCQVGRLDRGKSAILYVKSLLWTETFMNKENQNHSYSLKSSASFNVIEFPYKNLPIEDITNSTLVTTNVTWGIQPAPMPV
T1 sequence (P05106 27-718, chain 2 of 2): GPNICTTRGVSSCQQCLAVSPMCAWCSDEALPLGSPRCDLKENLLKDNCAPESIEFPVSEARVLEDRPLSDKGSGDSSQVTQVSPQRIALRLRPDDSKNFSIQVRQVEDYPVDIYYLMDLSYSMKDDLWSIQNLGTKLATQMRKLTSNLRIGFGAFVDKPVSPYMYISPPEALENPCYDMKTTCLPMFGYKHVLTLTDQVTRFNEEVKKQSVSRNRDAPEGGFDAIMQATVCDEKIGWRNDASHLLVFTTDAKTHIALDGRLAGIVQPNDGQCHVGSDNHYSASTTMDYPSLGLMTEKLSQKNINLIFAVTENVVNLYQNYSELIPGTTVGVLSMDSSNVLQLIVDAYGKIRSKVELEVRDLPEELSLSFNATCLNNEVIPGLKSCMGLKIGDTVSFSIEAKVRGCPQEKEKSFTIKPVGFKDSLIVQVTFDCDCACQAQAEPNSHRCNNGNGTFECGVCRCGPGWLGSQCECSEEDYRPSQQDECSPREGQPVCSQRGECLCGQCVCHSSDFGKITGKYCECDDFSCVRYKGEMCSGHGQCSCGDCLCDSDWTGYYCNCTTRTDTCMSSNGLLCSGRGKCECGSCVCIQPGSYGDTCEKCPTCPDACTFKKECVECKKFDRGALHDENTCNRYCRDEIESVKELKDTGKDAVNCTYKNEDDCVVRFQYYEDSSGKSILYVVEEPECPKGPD

B1: β43–63, 20-amino-acid peptide derived from the β chain of human fibrinogen E-fragment (peptide)
peptide: ARPAKAAATQKKVERKAPDA
notes: human fibrinogen β chain, N terminus of the β chain of FgnE, named amino acids 43–63; source: synthetic peptide (GenScript Corporation)
- binding result: binds
